Measured values from US20060078911, “Oxidative DNA damage protection” (published 2006).

Tests used:
[1] = target: PC4 (full length wild type) (Homo sapiens, UniProt P53999 SEQ:1-127); assay: EMSA; complete binding at 352 nM PC4 without XPG; second shifted band at 704 nM; 2.5 nM DNA, 110 mM KCl, 1 mM EDTA, poly(dI-dC), pH 7.5, room temp; with XPG (41 nM) present complete binding at 44 nM; conditions: tags: expressed in E. coli BL21(DE3); chain copies: 2 (inferred); label: 5'-32P on 10T-strand; duplex with central 10-nt unpaired bubble
Protocol: (§1) 2.5 nM of the 10-nt bubble DNA substrate was incubated with 41 nM of purified XPG (lanes 2-7) or without XPG (lanes 9-13). Reaction mixtures were supplemented with 44 nM (lanes 3 and 9), 88 nM (lanes 4 and 10), 176 nM (lanes 5 and 11), 352 nM (lanes 6 and 12) and 704 nM (lanes 7 and 13) of human PC4 protein, respectively. Samples were loaded onto a 4.5% native gel and electrophoresis was conducted at 150 V for 2 hours at 4° C. The gel was dried and exposed on a phosphorimager screen. No protein was added in lanes 1 and 8.
(§2) The 10T-strand was 5′-end labeled with T4 polynucleotide kinase and [γ-³²P]ATP and annealed with the complementary 10C-strand by heating for 3 minutes at 90° C. and cooled to room temperature. […] The gels were visualized by phosphorimager and analyzed using ImageQuant™ software (Molecular Dynamics).
(§3) To determine if XPG affects PC4 interaction with DNA bubbles, we pre-incubated the 10 bp bubble DNA with XPG and then added PC4 at varying concentrations (FIG. 9A, lanes 3-7). XPG strongly stimulated PC4 binding, with complete binding achieved at the lowest PC4 protein concentration analyzed (44 nM, lane 3) as compared to 352 nM in the absence of XPG Correspondingly, the tetramer-bound complex appears at lower concentrations (352 nM, lane 6) in the presence of XPG In no case did we observe a trimeric complex of XPG, PC4, and DNA. […]

[2] = target: T1, XPG (Homo sapiens, UniProt P28715 P28715:1-1186); assay: EMSA; 41 nM XPG gives slowly migrating complex; displaced by PC4; 110 mM KCl, 1 mM EDTA, pH 7.5, room temp; conditions: tags: expressed in High5 insect cells (pFASTBAC); label: 5'-32P on 10T-strand; duplex with central 10-nt unpaired bubble
T1 sequence: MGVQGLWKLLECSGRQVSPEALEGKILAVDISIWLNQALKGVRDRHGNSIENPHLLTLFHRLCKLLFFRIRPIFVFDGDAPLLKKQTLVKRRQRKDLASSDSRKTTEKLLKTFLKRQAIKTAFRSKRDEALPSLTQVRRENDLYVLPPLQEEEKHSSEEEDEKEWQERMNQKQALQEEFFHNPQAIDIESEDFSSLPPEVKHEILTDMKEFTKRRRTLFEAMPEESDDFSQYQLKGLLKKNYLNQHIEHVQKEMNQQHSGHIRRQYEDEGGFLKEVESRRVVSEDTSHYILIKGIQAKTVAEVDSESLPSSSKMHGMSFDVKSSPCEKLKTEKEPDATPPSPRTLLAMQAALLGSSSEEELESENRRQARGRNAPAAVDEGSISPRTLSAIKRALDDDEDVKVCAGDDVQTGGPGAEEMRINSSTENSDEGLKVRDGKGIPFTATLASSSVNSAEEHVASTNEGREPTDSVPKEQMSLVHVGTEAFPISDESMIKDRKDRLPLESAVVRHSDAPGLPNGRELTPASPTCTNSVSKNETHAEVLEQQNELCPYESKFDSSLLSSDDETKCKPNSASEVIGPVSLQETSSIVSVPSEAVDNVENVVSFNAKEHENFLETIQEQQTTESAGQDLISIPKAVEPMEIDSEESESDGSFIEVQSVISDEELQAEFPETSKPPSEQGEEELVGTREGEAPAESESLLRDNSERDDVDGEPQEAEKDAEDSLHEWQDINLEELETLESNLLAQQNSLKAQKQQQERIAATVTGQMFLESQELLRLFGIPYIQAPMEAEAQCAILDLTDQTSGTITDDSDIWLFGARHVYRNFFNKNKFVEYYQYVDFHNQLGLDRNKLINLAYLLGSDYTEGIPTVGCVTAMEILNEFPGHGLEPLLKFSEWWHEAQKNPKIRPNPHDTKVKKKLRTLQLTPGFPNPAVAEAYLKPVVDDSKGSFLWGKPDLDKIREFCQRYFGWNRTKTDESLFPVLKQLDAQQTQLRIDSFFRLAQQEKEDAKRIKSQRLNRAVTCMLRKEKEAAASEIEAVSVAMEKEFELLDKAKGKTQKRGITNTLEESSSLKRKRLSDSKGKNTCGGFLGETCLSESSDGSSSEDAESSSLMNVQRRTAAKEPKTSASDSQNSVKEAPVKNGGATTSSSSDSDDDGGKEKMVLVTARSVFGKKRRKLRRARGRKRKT
Protocol: as §1, §2, §3

B1: 10-nt bubble DNA (10T/10C) (structured_DNA)
DNA 1: GGGCAGACAACGTGGCGCTGTTTTTTTTTTGTGTCCTAGCACAGCGTATG
DNA 2: CATACGCTGTGCTAGGACACCCCCCCCCCCCAGCGCCACGTTGTCTGCCC
Q: Does B1 bind [1]?
A: binds

Q: Does B1 bind [2]?
A: binds
